The results in this text go back to patent publication US20230093211A1.

Holding throughout (assay): SPR (Biacore T200), p75NTR-Fc captured on Protein A, neurotrophin injected
Assay [1] concerns the target T1, NT-4.
T1 sequence (P34130 81-210, species assumed, looked up): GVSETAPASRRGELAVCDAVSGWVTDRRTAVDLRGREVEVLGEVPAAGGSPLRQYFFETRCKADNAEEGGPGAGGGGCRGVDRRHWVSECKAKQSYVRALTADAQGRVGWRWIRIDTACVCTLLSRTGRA

The target of assay [2] is NT-3.
Assay [3] addresses T2, BDNF.
T2 sequence (P23560 19-247, species assumed, looked up): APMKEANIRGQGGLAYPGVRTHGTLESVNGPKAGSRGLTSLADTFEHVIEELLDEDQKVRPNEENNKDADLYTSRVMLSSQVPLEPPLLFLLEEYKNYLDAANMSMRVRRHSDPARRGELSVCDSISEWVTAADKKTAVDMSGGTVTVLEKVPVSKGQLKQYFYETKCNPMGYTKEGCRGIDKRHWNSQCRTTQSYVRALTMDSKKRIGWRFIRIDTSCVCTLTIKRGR

The target of assay [4] is NGF.
Sequence of NGF (P01138 122-241): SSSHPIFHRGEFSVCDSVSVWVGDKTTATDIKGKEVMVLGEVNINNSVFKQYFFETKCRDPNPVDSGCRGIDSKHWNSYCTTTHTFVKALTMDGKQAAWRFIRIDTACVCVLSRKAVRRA

Sequence of p75NTR-Fc (Fc fusion) (chain): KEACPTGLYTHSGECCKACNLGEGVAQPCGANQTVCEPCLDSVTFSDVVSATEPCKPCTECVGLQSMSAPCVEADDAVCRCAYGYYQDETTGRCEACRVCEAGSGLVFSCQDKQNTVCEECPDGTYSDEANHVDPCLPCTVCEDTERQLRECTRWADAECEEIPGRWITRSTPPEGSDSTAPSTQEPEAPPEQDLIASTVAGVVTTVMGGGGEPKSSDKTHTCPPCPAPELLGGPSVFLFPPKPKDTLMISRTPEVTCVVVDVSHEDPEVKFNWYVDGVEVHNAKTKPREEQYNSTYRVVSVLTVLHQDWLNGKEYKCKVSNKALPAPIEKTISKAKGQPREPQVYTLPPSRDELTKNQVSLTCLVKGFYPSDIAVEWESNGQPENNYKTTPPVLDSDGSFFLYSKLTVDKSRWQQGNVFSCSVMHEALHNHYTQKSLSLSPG

The Kd is the constant that tells how readily two partners part at equilibrium. As for p75NTR-Fc (Fc fusion), the Kd came to 0.181 nM in assay [1], 0.0142 nM in assay [2], 0.0418 nM in assay [3] and 0.554 nM in assay [4].
